The experiment addresses T1, HLA-A*24.
T1 construct: Monomers captured on streptavidin plates; also called peptide-receptive MHC molecules; MHC complexes
The experiment is described as follows: UV peptide-exchange ELISA (anti-b2m); yield grade + = >10%. The text has this:
Candidate peptides for T cell based therapies according to the present invention were further tested for their MHC binding capacity (affinity). The individual peptide-MHC complexes were produced by UV-ligand exchange, where a UV-sensitive peptide is cleaved upon UV-irradiation, and exchanged with the peptide of interest as analyzed. Only peptide candidates that can effectively bind and stabilize the peptide-receptive MHC molecules prevent dissociation of the MHC complexes. To determine the yield of the exchange reaction, an ELISA was performed based on the detection of the light chain (p2m) of stabilized MHC complexes. The assay was performed as generally described in Rodenko et al. (Rodenko et al., 2006)
96 well MAXISorp plates (NUNC) were coated over night with 2 ug/ml streptavidin in PBS at room temperature, washed 4× and blocked for 1 h at 37° C. in 2% BSA containing blocking buffer. Refolded HLA-A*02:01/MLA-001 monomers served as standards, covering the range of 15-500 ng/ml. Peptide-MHC monomers of the UV-exchange reaction were diluted 100-fold in blocking buffer. Samples were incubated for 1 h at 37° C., washed four times, incubated with 2 ug/ml HRP conjugated anti-β2m for 1h at 37° C., washed again and detected with TMB solution that is stopped with […]. Absorption was measured at 450 nm. Candidate peptides that show a high exchange yield (preferably higher than 50%, most preferred higher than 75%) are generally preferred for a generation and production of antibodies or fragments thereof, and/or T cell receptors or fragments thereof, as they show sufficient avidity to the MHC molecules and prevent dissociation of the MHC complexes.
In general terms: In an ELISA, binding on a coated surface is turned into a signal by an enzyme label.
As to SHSDHEFLF (also called SHSDHEFLF) [ARSH-001], the peptide exchange yield fell in the range of 10 to 20%.
To LQIPVSPSF (also called LQIPVSPSF) [MAGEC1-004] belongs 10 to 20%.
Turning to LIFALALAAF (also called LIFALALAAF) [GAST-001], the peptide exchange yield fell in the range of 10 to 20%.
To ATATLHLIF (also called ATATLHLIF) [PCD-007] belongs 10 to 20%; to KQVIGIHTF (also called KQVIGIHTF) [SFMBT1-002], 10 to 20%.
On to VQADAKLLF (also called VQADAKLLF) [C20-002], for which the peptide exchange yield fell in the range of 10 to 20%.
Take ISFSDTVNVW (also called ISFSDTVNVW) [ITIH6-001]: the peptide exchange yield was in the range of 10 to 20%.
To FPPTPPLF (also called FPPTPPLF) [BCL11A-002] belongs 10 to 20%.
With IVTFMNKTLGTF (also called IVTFMNKTLGTF) [ADAM29-001] the figure was 10 to 20%.

Values taken from US20190352359A1 (IMMATICS BIOTECHNOLOGIES, published 2019).
